Source: paper PMC9292375, “Structural basis of an epitope tagging system derived from Haloarcula marismortui bacteriorhodopsin I D94N and its monoclonal antibody GD‐26” (The Febs Journal, 2021)

Columns and labels:
Assay in all cases: ITC; synthetic peptide in the syringe titrated into GD-26 Fab or GD-26 IgG (10 μM) in the cell; 25 °C; 50 mM Tris, 150 mM NaCl, pH 7.5; one-set-of-sites model
Details in all cases: both partners purified
[1] = molecular target: T1, TD peptide N4 (Gly1 to Ala4 deleted) (Haloarcula marismortui (strain ATCC …))
T1 construct: TD peptide residues 5-9 (Gly1, Thr2, Gly3 and Ala4 deleted); numbers count on: the TD peptide; source: synthetic peptide
T1 chain: TPADD

TD peptide A7W = molecular target: T2, TD peptide A7W (A7W (stands in the printed letters))
T2 construct: TD peptide (C terminus of HmBRI) with A7W; numbers count on: the TD peptide; source: synthetic peptide
T2 chain: GTGATPWDD

TD peptide A7E = molecular target: T3, TD peptide A7E (A7E (stands in the printed letters))
T3 construct: TD peptide (C terminus of HmBRI) with A7E; numbers count on: the TD peptide; source: synthetic peptide
T3 chain: GTGATPEDD

TD peptide A7H = molecular target: T4, TD peptide A7H (A7H (stands in the printed letters))
T4 construct: TD peptide (C terminus of HmBRI) with A7H; numbers count on: the TD peptide; source: synthetic peptide
T4 chain: GTGATPHDD

TD peptide A7T = molecular target: T5, TD peptide A7T (A7T (stands in the printed letters))
T5 construct: TD peptide (C terminus of HmBRI) with A7T; numbers count on: the TD peptide; source: synthetic peptide
T5 chain: GTGATPTDD

TD peptide A7P = molecular target: T6, TD peptide A7P (A7P (stands in the printed letters))
T6 construct: TD peptide (C terminus of HmBRI) with A7P; numbers count on: the TD peptide; source: synthetic peptide
T6 chain: GTGATPPDD

[2] = molecular target: T7, TD peptide C2 (Asp8 and Asp9 removed) (Haloarcula marismortui (strain ATCC …))
T7 construct: TD peptide residues 1-7 (Asp8 and Asp9 removed); numbers count on: the TD peptide; source: synthetic peptide
T7 chain: GTGATPA

B1: GD-26 Fab (antigen-binding fragment of monoclonal antibody GD-26) (Fab, V domains shown)
VH: QVQLRQSGPELVKPGASVKMSCRASGYTFTNYNIHWVRQRPGQGLEWIGWIYPVDGTTKYNEKFKDKTTLTSDKSSSTAYMSLSGLTSEDSAIYFCARGLDNWGQGTSVTVSS
VL: DVVLTQTPLSLSVTIGQPASISCRSSQRLLYSNGKTYLNWFQQRPGQAPKYLMFQVSKLGPGIPARFSGSGSETDFTLKISRVEAEDLGVYYCFQGTFFPHTFGGGTKLEMK
notes: Fab heavy chain of GD-26; whole chain in PDB 7DOH; light chain of GD-26; the Fab was secreted; source: Expi293F, transient co-transfection, secreted; purified (HisTrap Excel, Superdex 200 gel filtration)
- binding result [1]: no binding
- Kd (TD peptide A7W): 34.4 nM
- Kd (TD peptide A7E): 46.4 nM
- Kd (TD peptide A7H): 94 nM
- Kd (TD peptide A7T): 449 nM
- Kd (TD peptide A7P): 1040 nM
- binding result [2]: no binding
